Results on 7 molecules are retold here after paper PMC6370319 (Cell reports, 2019).

First the molecules themselves.
B1: FNIP1-D-His6 (domain or fragment)
chain: TEWDIPRNESSDSALGDSESEDTGHDMTRQVSSYYGGEQEDWAEEDEIPFPGSKLIEVSAVQPNIANFGRSLLGGYCSSYVPDFVLQGIGSDERFRQCLMSDLSHAVQHPVLDEPIAEAVCIIADMDKWTVQVASSQRRVTDNKLGKEVLVSSLVSNLLHSTLQLYKHNLSPNFCVMHLEDRLQELYFKSKMLSEYLRGQMRVHVKELGVVLGIESSDLPLLAAVASTHSPYVAQILL
B2: FNIP1-D-His6 S946A (domain or fragment)
chain: TEWDIPRNESSDSALGDAESEDTGHDMTRQVSSYYGGEQEDWAEEDEIPFPGSKLIEVSAVQPNIANFGRSLLGGYCSSYVPDFVLQGIGSDERFRQCLMSDLSHAVQHPVLDEPIAEAVCIIADMDKWTVQVASSQRRVTDNKLGKEVLVSSLVSNLLHSTLQLYKHNLSPNFCVMHLEDRLQELYFKSKMLSEYLRGQMRVHVKELGVVLGIESSDLPLLAAVASTHSPYVAQILL
B3: FNIP1-D-His6 S938A (domain or fragment)
chain: TEWDIPRNEASDSALGDSESEDTGHDMTRQVSSYYGGEQEDWAEEDEIPFPGSKLIEVSAVQPNIANFGRSLLGGYCSSYVPDFVLQGIGSDERFRQCLMSDLSHAVQHPVLDEPIAEAVCIIADMDKWTVQVASSQRRVTDNKLGKEVLVSSLVSNLLHSTLQLYKHNLSPNFCVMHLEDRLQELYFKSKMLSEYLRGQMRVHVKELGVVLGIESSDLPLLAAVASTHSPYVAQILL
B4: FNIP1-D-His6 S941A (domain or fragment)
chain: TEWDIPRNESSDAALGDSESEDTGHDMTRQVSSYYGGEQEDWAEEDEIPFPGSKLIEVSAVQPNIANFGRSLLGGYCSSYVPDFVLQGIGSDERFRQCLMSDLSHAVQHPVLDEPIAEAVCIIADMDKWTVQVASSQRRVTDNKLGKEVLVSSLVSNLLHSTLQLYKHNLSPNFCVMHLEDRLQELYFKSKMLSEYLRGQMRVHVKELGVVLGIESSDLPLLAAVASTHSPYVAQILL
B5: FNIP1-D-His6 S939A (domain or fragment)
chain: TEWDIPRNESADSALGDSESEDTGHDMTRQVSSYYGGEQEDWAEEDEIPFPGSKLIEVSAVQPNIANFGRSLLGGYCSSYVPDFVLQGIGSDERFRQCLMSDLSHAVQHPVLDEPIAEAVCIIADMDKWTVQVASSQRRVTDNKLGKEVLVSSLVSNLLHSTLQLYKHNLSPNFCVMHLEDRLQELYFKSKMLSEYLRGQMRVHVKELGVVLGIESSDLPLLAAVASTHSPYVAQILL
B6: FNIP1-D-His6 S948A (domain or fragment)
chain: TEWDIPRNESSDSALGDSEAEDTGHDMTRQVSSYYGGEQEDWAEEDEIPFPGSKLIEVSAVQPNIANFGRSLLGGYCSSYVPDFVLQGIGSDERFRQCLMSDLSHAVQHPVLDEPIAEAVCIIADMDKWTVQVASSQRRVTDNKLGKEVLVSSLVSNLLHSTLQLYKHNLSPNFCVMHLEDRLQELYFKSKMLSEYLRGQMRVHVKELGVVLGIESSDLPLLAAVASTHSPYVAQILL

The target in the first test is T1, OGT-FLAG (human, UniProt O15294-3 1-1036).
T1 sequence: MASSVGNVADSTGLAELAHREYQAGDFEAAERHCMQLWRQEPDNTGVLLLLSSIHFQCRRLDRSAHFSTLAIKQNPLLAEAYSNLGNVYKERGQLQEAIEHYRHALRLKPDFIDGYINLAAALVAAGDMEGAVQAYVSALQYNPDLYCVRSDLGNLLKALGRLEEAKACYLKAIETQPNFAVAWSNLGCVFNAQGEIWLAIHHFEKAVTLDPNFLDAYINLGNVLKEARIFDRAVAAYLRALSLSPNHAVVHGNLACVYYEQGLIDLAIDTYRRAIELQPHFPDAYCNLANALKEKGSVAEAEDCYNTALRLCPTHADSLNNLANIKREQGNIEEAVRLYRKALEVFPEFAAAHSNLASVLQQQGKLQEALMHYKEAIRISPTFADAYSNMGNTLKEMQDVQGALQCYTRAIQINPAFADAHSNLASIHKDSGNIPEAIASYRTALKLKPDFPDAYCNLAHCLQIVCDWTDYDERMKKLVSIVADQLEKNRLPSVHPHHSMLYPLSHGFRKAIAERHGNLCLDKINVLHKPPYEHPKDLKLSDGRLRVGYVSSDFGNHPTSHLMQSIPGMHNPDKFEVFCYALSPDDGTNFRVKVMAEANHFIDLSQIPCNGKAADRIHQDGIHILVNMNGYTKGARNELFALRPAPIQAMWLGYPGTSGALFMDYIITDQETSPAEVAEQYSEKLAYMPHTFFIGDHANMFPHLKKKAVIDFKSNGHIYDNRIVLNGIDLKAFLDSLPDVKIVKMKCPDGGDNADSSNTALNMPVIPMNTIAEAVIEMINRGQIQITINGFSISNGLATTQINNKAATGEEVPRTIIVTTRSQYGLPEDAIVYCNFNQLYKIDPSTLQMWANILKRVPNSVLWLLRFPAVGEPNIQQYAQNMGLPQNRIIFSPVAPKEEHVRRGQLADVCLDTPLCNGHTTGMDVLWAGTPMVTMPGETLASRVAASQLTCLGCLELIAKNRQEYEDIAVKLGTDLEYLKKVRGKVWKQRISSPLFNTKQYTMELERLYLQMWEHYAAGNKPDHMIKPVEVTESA
As to the kind of experiment: pull-down.
Settings: not given
B1: the binding result is recorded as “binds”.

As to B2, the binding result was “binds”.

B3: the binding result was “binds”.

Take B4: the binding result is “binds”.

Turning to B5, the binding result is listed as “binds”.

For B6, the binding result was “binds”.

The target in the next test is Hsp90α (UniProt P07900). As to the kind of experiment: FNIP1-FLAG IP from yeast, Hsp90α blot. As to conditions: reference: wild type FNIP1-FLAG; sites S948.
Turning to FNIP1 (from UniProt Q8TF40) S948A, the “binding against the reference” value is “weaker”.
